Test results from US20200199204A1 (UNITED STATES OF AMERICA AS REPRESENTED BY THE SECRETARY …, published 2020).

How the values were obtained:
Experiment in all cases: cell-based or functional assay
HIV-1 Env of Q842.d12 = HIV-1 Env of Q842.d12 (HIV-1)
HIV-1 Env of UG037.8 = HIV-1 Env of UG037.8 (HIV-1)
HIV-1 Env of MB539.2B7 = HIV-1 Env of MB539.2B7 (HIV-1)
HIV-1 Env of ZM197.7 = HIV-1 Env of ZM197.7 (HIV-1)
HIV-1 Env of ZM249.1 = HIV-1 Env of ZM249.1 (HIV-1)
HIV-1 Env of Q23.17 = HIV-1 Env of Q23.17 (HIV-1)
HIV-1 Env of SC422.8 = HIV-1 Env of SC422.8 (HIV-1)
HIV-1 Env of RW020.2 = HIV-1 Env of RW020.2 (HIV-1)
HIV-1 Env of DU156.12 = HIV-1 Env of DU156.12 (HIV-1)
HIV-1 Env of AC10.29 = HIV-1 Env of AC10.29 (HIV-1)
HIV-1 Env of CAAN.A2 = HIV-1 Env of CAAN.A2 (HIV-1)
HIV-1 Env of KER2018.11 = HIV-1 Env of KER2018.11 (HIV-1)
HIV-1 Env of C1080.c3 = HIV-1 Env of C1080.c3 (HIV-1)
HIV-1 Env of WITO.33 = HIV-1 Env of WITO.33 (HIV-1)
HIV-1 Env of QH0692.42 = HIV-1 Env of QH0692.42 (HIV-1)
HIV-1 Env of CM244.ec1 = HIV-1 Env of CM244.ec1 (HIV-1)
HIV-1 Env of 6535.3 = HIV-1 Env of 6535.3 (HIV-1)
HIV-1 Env of TRJO.58 = HIV-1 Env of TRJO.58 (HIV-1)
HIV-1 Env of Q461.e2 = HIV-1 Env of Q461.e2 (HIV-1)
HIV-1 Env of DU422.01 = HIV-1 Env of DU422.01 (HIV-1)
HIV-1 Env of 0260.v5.c36 = HIV-1 Env of 0260.v5.c36 (HIV-1)
HIV-1 Env of MB201 = HIV-1 Env of MB201 (HIV-1)
HIV-1 Env of ZM214.15 = HIV-1 Env of ZM214.15 (HIV-1)
HIV-1 Env of KER2008.12 = HIV-1 Env of KER2008.12 (HIV-1)
HIV-1 Env of ZM109.4 = HIV-1 Env of ZM109.4 (HIV-1)
HIV-1 Env of ZM233.6 = HIV-1 Env of ZM233.6 (HIV-1)
HIV-1 Env of Q168.a2 = HIV-1 Env of Q168.a2 (HIV-1)
HIV-1 Env of 96ZM651.02 = HIV-1 Env of 96ZM651.02 (HIV-1)
HIV-1 Env of TRO.11 = HIV-1 Env of TRO.11 (HIV-1)
HIV-1 Env of BG505.w6m = HIV-1 Env of BG505.w6m (HIV-1)
HIV-1 Env of REJO.67 = HIV-1 Env of REJO.67 (HIV-1)
HIV-1 Env of CAP256.PI = HIV-1 Env of CAP256.PI (HIV-1)
HIV-1 Env of CAP45.G3 = HIV-1 Env of CAP45.G3 (HIV-1)
HIV-1 Env of Q769.d22 = HIV-1 Env of Q769.d22 (HIV-1)
HIV-1 Env of CAP256.SU = HIV-1 Env of CAP256.SU (HIV-1)
HIV-1 Env of CAP210.E8 = HIV-1 Env of CAP210.E8 (HIV-1)
HIV-1 Env of ZM135.10a = HIV-1 Env of ZM135.10a (HIV-1)
HIV-1 Env of PVO.04 = HIV-1 Env of PVO.04 (HIV-1)
HIV-1 Env of 191821.E6.1 = HIV-1 Env of 191821.E6.1 (HIV-1)
HIV-1 Env of RHPA.7 = HIV-1 Env of RHPA.7 (HIV-1)
HIV-1 Env of DU172.17 = HIV-1 Env of DU172.17 (HIV-1)
HIV-1 Env of 3016.V5.c36 = HIV-1 Env of 3016.V5.c36 (HIV-1)
HIV-1 Env of Q259.d2.17 = HIV-1 Env of Q259.d2.17 (HIV-1)
HIV-1 Env of THRO.18 = HIV-1 Env of THRO.18 (HIV-1)
HIV-1 Env of ZM53.12 = HIV-1 Env of ZM53.12 (HIV-1)
HIV-1 Env of 6405.v4.c34 = HIV-1 Env of 6405.v4.c34 (HIV-1)
HIV-1 Env of CAP244.D3 = HIV-1 Env of CAP244.D3 (HIV-1)

B1: CAP256-VRC26.07 (antibody, V domains shown)
VH: EVQLVESGGGVVQPGRSLRLSCVGSQFSFNRYGMHWVRQAPGKGLEWVAGISFDGTDRYHADNVWGRFTISRDNSKNTLYLQMSSLRAEDTALYYCAKDLREDECEEWWSDYYDFGKKLPCRKSRGVAGVFDKWGQGTMVTVSS
VL: QAVLTQPPSVSAAPGQNVTISCSGSGSNIGNNFVSWYQQRPGTAPKLLIYESNKRPSGIPDRFSGSKSGTSATLAITGLQTGDEAYYYCATWAARLNSARVFGTGTMVTVLG
In the case of B1, the “neutralization IC50” value (HIV-1 Env of Q842.d12) is reported as greater than 50 µg/mL, the “neutralization IC50” value (HIV-1 Env of UG037.8) is reported as greater than 50 µg/mL and the “neutralization IC50” value (HIV-1 Env of MB539.2B7) is reported as greater than 50 µg/mL. The “neutralization IC50” value (HIV-1 Env of ZM197.7) was greater than 50 µg/mL, the “neutralization IC50” value (HIV-1 Env of ZM249.1) was 44.1 µg/mL and the “neutralization IC50” value (HIV-1 Env of Q23.17) was greater than 50 µg/mL. For the same binder, the “neutralization IC50” value (HIV-1 Env of SC422.8) was greater than 50 µg/mL, the “neutralization IC50” value (HIV-1 Env of RW020.2) was greater than 50 µg/mL and the “neutralization IC50” value (HIV-1 Env of DU156.12) was greater than 50 µg/mL. The “neutralization IC50” value (HIV-1 Env of AC10.29) was greater than 50 µg/mL, the “neutralization IC50” value (HIV-1 Env of CAAN.A2) was greater than 50 µg/mL and the “neutralization IC50” value (HIV-1 Env of KER2018.11) was 3.1 µg/mL. The “neutralization IC50” value (HIV-1 Env of C1080.c3) was greater than 50 µg/mL, the “neutralization IC50” value (HIV-1 Env of WITO.33) was greater than 50 µg/mL and the “neutralization IC50” value (HIV-1 Env of QH0692.42) was greater than 50 µg/mL. The “neutralization IC50” value (HIV-1 Env of CM244.ec1) was 40.1 µg/mL, the “neutralization IC50” value (HIV-1 Env of 6535.3) was greater than 50 µg/mL and the “neutralization IC50” value (HIV-1 Env of TRJO.58) was greater than 50 µg/mL. For the same binder, the “neutralization IC50” value (HIV-1 Env of Q461.e2) was greater than 50 µg/mL, the “neutralization IC50” value (HIV-1 Env of DU422.01) was greater than 50 µg/mL and the “neutralization IC50” value (HIV-1 Env of 0260.v5.c36) was greater than 50 µg/mL. For the same binder, the “neutralization IC50” value (HIV-1 Env of MB201) was greater than 50 µg/mL, the “neutralization IC50” value (HIV-1 Env of ZM214.15) was greater than 50 µg/mL and the “neutralization IC50” value (HIV-1 Env of KER2008.12) was greater than 50 µg/mL. For the same binder, the “neutralization IC50” value (HIV-1 Env of ZM109.4) was greater than 50 µg/mL, the “neutralization IC50” value (HIV-1 Env of ZM233.6) was greater than 50 µg/mL and the “neutralization IC50” value (HIV-1 Env of Q168.a2) was greater than 50 µg/mL. The “neutralization IC50” value (HIV-1 Env of 96ZM651.02) was greater than 50 µg/mL, the “neutralization IC50” value (HIV-1 Env of TRO.11) was greater than 50 µg/mL and the “neutralization IC50” value (HIV-1 Env of BG505.w6m) was greater than 50 µg/mL. For the same binder, the “neutralization IC50” value (HIV-1 Env of REJO.67) was greater than 50 µg/mL, the “neutralization IC50” value (HIV-1 Env of CAP256.PI) was greater than 50 µg/mL and the “neutralization IC50” value (HIV-1 Env of CAP45.G3) was greater than 50 µg/mL. For the same binder, the “neutralization IC50” value (HIV-1 Env of Q769.d22) was greater than 50 µg/mL, the “neutralization IC50” value (HIV-1 Env of CAP256.SU) was 8 ng/mL and the “neutralization IC50” value (HIV-1 Env of CAP210.E8) was 0.021 µg/mL. For the same binder, the “neutralization IC50” value (HIV-1 Env of ZM135.10a) was greater than 50 µg/mL, the “neutralization IC50” value (HIV-1 Env of PVO.04) was greater than 50 µg/mL and the “neutralization IC50” value (HIV-1 Env of 191821.E6.1) was greater than 50 µg/mL. For the same binder, the “neutralization IC50” value (HIV-1 Env of RHPA.7) was greater than 50 µg/mL, the “neutralization IC50” value (HIV-1 Env of DU172.17) was greater than 50 µg/mL and the “neutralization IC50” value (HIV-1 Env of 3016.V5.c36) was greater than 50 µg/mL. For the same binder, the “neutralization IC50” value (HIV-1 Env of Q259.d2.17) was 42.5 µg/mL, the “neutralization IC50” value (HIV-1 Env of THRO.18) was greater than 50 µg/mL and the “neutralization IC50” value (HIV-1 Env of ZM53.12) was 0.014 µg/mL. The “neutralization IC50” value (HIV-1 Env of 6405.v4.c34) was greater than 50 µg/mL and the “neutralization IC50” value (HIV-1 Env of CAP244.D3) was greater than 50 µg/mL.
